43 molecules from USRE48558 (Genentech, dated 2021) can be followed below.

The chains are these.
T1: extracellular domain of human CD79b (human, UniProt P40259 29-159)
T1 construct: also called huCD79becd; huCD79b-ecd
T1 sequence: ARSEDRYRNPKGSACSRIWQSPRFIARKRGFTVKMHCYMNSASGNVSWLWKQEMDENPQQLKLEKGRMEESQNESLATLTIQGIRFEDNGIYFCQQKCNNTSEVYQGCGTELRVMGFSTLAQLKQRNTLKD

B1: huMA79b graft variant SEQ ID NO: 35 (Fab, name in Kabat numbering, V domains shown)
VH: EVQLVESGGGLVQPGGSLRLSCAASGYTFSSYWIEWVRQAPGKGLEWVGEILPGGGDTNYNEIFKGRFTISADTSKNTAYLQMNSLRAEDTAVYYCTRRVPVYFDYWGQGTLVTVSS
VL: DIQMTQSPSSLSASVGDRVTITCKASQSVDYDGDSFLNWYQQKPGKAPKLLIYAASNRKSGVPSRFSGSGSGTDFTLTISSLQPEDFATYYCQQSNEDPLTFGQGTKVEIKR
notes: Fab on phage; rest as huMA79b graft
B2: huMA79b graft variant SEQ ID NO: 78 (Fab, name in Kabat numbering, V domains shown)
VH: B1 VH with T28P, S31G
VL: B1 VL with R58L, K59E
notes: as for B1
B3: huMA79b graft variant SEQ ID NO: 98 (Fab, name in Kabat numbering, V domains shown)
VH: B1 VH with D105S
VL: B1 VL with R58L, K59E
notes: as for B1
B4: huMA79b graft variant SEQ ID NO: 84 (Fab, name in Kabat numbering, V domains shown)
VH: B1 VH with T28N, F29V, I34L, E35S
VL: B1 VL with R58L, K59E
notes: as for B1
B5: huMA79b graft variant SEQ ID NO: 63 (Fab, name in Kabat numbering, V domains shown)
VH: B1 VH with S30K, S31K
VL: B1 VL with R58L, K59E
notes: as for B1
B6: huMA79b graft variant SEQ ID NO: 73 (Fab, name in Kabat numbering, V domains shown)
VH: B1 VH with T28S, S30R, E35N
VL: B1 VL with R58L, K59E
notes: as for B1
B7: huMA79b graft variant SEQ ID NO: 65 (Fab, name in Kabat numbering, V domains shown)
VH: B1 VH with T28P, S30R, S31R
VL: B1 VL with R58L, K59E
notes: as for B1
B8: huMA79b graft variant SEQ ID NO: 92 (Fab, name in Kabat numbering, V domains shown)
VH: B1 VH with V102F, Y103C, F104L
VL: B1 VL with R58L, K59E
notes: as for B1
B9: huMA79b graft variant SEQ ID NO: 68 (Fab, name in Kabat numbering, V domains shown)
VH: B1 VH with T28G, S30T, E35S
VL: B1 VL with R58L, K59E
notes: as for B1
B10: huMA79b graft variant SEQ ID NO: 100 (Fab, name in Kabat numbering, V domains shown)
VH: B1 VH with Y103R, F104L
VL: B1 VL with R58L, K59E
notes: as for B1
B11: huMA79b graft variant SEQ ID NO: 59 (Fab, name in Kabat numbering, V domains shown)
VH: B1 VH with T28S, S30K
VL: B1 VL with R58L, K59E
notes: as for B1
B12: huMA79b graft variant SEQ ID NO: 64 (Fab, name in Kabat numbering, V domains shown)
VH: B1 VH with T28P, S30T, E35Q
VL: B1 VL with R58L, K59E
notes: as for B1
B13: huMA79b graft variant SEQ ID NO: 51 (Fab, name in Kabat numbering, V domains shown)
VH: B1 VH
VL: B1 VL with R58L, K59E, Q93N, Q94N, E97G, T101N
notes: as for B1
B14: huMA79b graft variant SEQ ID NO: 69 (Fab, name in Kabat numbering, V domains shown)
VH: B1 VH with S30T, I34L, E35S
VL: B1 VL with R58L, K59E
notes: as for B1
B15: huMA79b graft variant SEQ ID NO: 66 (Fab, name in Kabat numbering, V domains shown)
VH: B1 VH with T28P, F29V, S30G, S31R, E35S
VL: B1 VL with R58L, K59E
notes: as for B1
B16: huMA79b graft variant SEQ ID NO: 80 (Fab, name in Kabat numbering, V domains shown)
VH: B1 VH with T28P, S30R, E35N
VL: B1 VL with R58L, K59E
notes: as for B1
B17: huMA79b graft variant SEQ ID NO: 85 (Fab, name in Kabat numbering, V domains shown)
VH: B1 VH with Y27F, T28P, S30T, E35S
VL: B1 VL with R58L, K59E
notes: as for B1
B18: huMA79b graft variant SEQ ID NO: 99 (Fab, name in Kabat numbering, V domains shown)
VH: B1 VH with Y103V, F104L
VL: B1 VL with R58L, K59E
notes: as for B1
B19: huMA79b graft variant SEQ ID NO: 82 (Fab, name in Kabat numbering, V domains shown)
VH: B1 VH with T28P, S30N, S31R
VL: B1 VL with R58L, K59E
notes: as for B1
B20: huMA79b graft variant SEQ ID NO: 70 (Fab, name in Kabat numbering, V domains shown)
VH: B1 VH with S30T
VL: B1 VL with R58L, K59E
notes: as for B1
B21: huMA79b graft variant SEQ ID NO: 75 (Fab, name in Kabat numbering, V domains shown)
VH: B1 VH with T28S, S30R, S31R
VL: B1 VL with R58L, K59E
notes: as for B1
B22: huMA79b graft variant SEQ ID NO: 50 (Fab, name in Kabat numbering, V domains shown)
VH: B1 VH
VL: B1 VL with R58L, K59E, E97L
notes: as for B1
B23: huMA79b graft variant SEQ ID NO: 55 (Fab, name in Kabat numbering, V domains shown)
VH: B1 VH with T28P, S30R, E35Q
VL: B1 VL with R58L, K59E
notes: as for B1
B24: huMA79b graft variant SEQ ID NO: 53 (Fab, name in Kabat numbering, V domains shown)
VH: B1 VH
VL: B1 VL with R58L, K59E, Q93D, S95R, E97A
notes: as for B1
B25: huMA79b graft variant SEQ ID NO: 86 (Fab, name in Kabat numbering, V domains shown)
VH: B1 VH with Y27F, T28P, S30N, S31R, E35N
VL: B1 VL with R58L, K59E
notes: as for B1
B26: huMA79b graft variant SEQ ID NO: 83 (Fab, name in Kabat numbering, V domains shown)
VH: B1 VH with T28P, S30N, S31G, E35N
VL: B1 VL with R58L, K59E
notes: as for B1
B27: huMA79b graft variant SEQ ID NO: 74 (Fab, name in Kabat numbering, V domains shown)
VH: B1 VH with T28S, S30R, S31R, E35N
VL: B1 VL with R58L, K59E
notes: as for B1
B28: huMA79b graft variant SEQ ID NO: 49 (Fab, name in Kabat numbering, V domains shown)
VH: B1 VH
VL: B1 VL with R58L, K59E, E97D
notes: as for B1
B29: huMA79b graft variant SEQ ID NO: 58 (Fab, name in Kabat numbering, V domains shown)
VH: B1 VH with S30N, S31R, E35N
VL: B1 VL with R58L, K59E
notes: as for B1
B30: huMA79b graft variant SEQ ID NO: 52 (Fab, name in Kabat numbering, V domains shown)
VH: B1 VH
VL: B1 VL with R58L, K59E, Q94P, S95D, D98A, L100R
notes: as for B1
B31: huMA79b graft variant SEQ ID NO: 81 (Fab, name in Kabat numbering, V domains shown)
VH: B1 VH with T28P, S30R, S31G
VL: B1 VL with R58L, K59E
notes: as for B1
B32: huMA79b graft variant SEQ ID NO: 56 (Fab, name in Kabat numbering, V domains shown)
VH: B1 VH with T28P, S30T, E35N
VL: B1 VL with R58L, K59E
notes: as for B1
B33: huMA79b graft variant SEQ ID NO: 96 (Fab, name in Kabat numbering, V domains shown)
VH: B1 VH with V102I, Y103R
VL: B1 VL with R58L, K59E
notes: as for B1
B34: huMA79b graft variant SEQ ID NO: 61 (Fab, name in Kabat numbering, V domains shown)
VH: B1 VH with T28Y, S30T
VL: B1 VL with R58L, K59E
notes: as for B1
B35: huMA79b graft variant SEQ ID NO: 72 (Fab, name in Kabat numbering, V domains shown)
VH: B1 VH with S30R, S31R, E35N
VL: B1 VL with R58L, K59E
notes: as for B1
B36: huMA79b graft variant SEQ ID NO: 79 (Fab, name in Kabat numbering, V domains shown)
VH: B1 VH with T28P, S30R, E35S
VL: B1 VL with R58L, K59E
notes: as for B1
B37: huMA79b graft variant SEQ ID NO: 89 (Fab, name in Kabat numbering, V domains shown)
VH: B1 VH with Y103K, F104L
VL: B1 VL with R58L, K59E
notes: as for B1
B38: huMA79b graft variant SEQ ID NO: 36 (Fab, name in Kabat numbering, V domains shown)
VH: B1 VH
VL: B1 VL with N57K, R58L, K59G
notes: as for B1
B39: huMA79b graft variant SEQ ID NO: 77 (Fab, name in Kabat numbering, V domains shown)
VH: B1 VH with T28P, S30T, S31R
VL: B1 VL with R58L, K59E
notes: as for B1
B40: huMA79b graft variant SEQ ID NO: 71 (Fab, name in Kabat numbering, V domains shown)
VH: B1 VH with S31G, E35N
VL: B1 VL with R58L, K59E
notes: as for B1
B41: huMA79b graft variant SEQ ID NO: 76 (Fab, name in Kabat numbering, V domains shown)
VH: B1 VH with T28S, S30P, I34L, E35Q
VL: B1 VL with R58L, K59E
notes: as for B1
B42: huMA79b graft variant SEQ ID NO: 62 (Fab, name in Kabat numbering, V domains shown)
VH: B1 VH with T28P, S30G, S31R, I34V, E35N
VL: B1 VL with R58L, K59E
notes: as for B1
B43: huMA79b graft variant SEQ ID NO: 95 (Fab, name in Kabat numbering, V domains shown)
VH: B1 VH with V102I, Y103K, F104L
VL: B1 VL with R58L, K59E
notes: as for B1

Numbering of substitutions follows the chain as printed.

In this assay the target is T1, extracellular domain of human CD79b. As to the kind of experiment: phage selection, Fab on phage, plate-bound huCD79becd.
Regarding B1, the binding result is recorded as “binds”.
With B2, the binding result is given as “binds”.
For the molecule B3, the binding result was “binds”.
For B4, the binding result was “binds”.
In the case of B5 it was “binds”; in that of B6, “binds”; in that of B7, “binds”.
To B8 belongs “binds”; to B9, “binds”; to B10, “binds”.
In the case of B11 it was “binds”; in that of B12, “binds”; in that of B13, “binds”.
For B14, the binding result is on record as “binds”.
To B15 belongs “binds”; to B16, “binds”; to B17, “binds”.
In the case of B18 it was “binds”; in that of B19, “binds”.
Regarding B20, the binding result is reported as “binds”.
In the case of B21 it was “binds”.
For B22, the binding result is recorded as “binds”.
To B23 belongs “binds”; to B24, “binds”; to B25, “binds”.
With B26, the binding result is listed as “binds”.
In the case of B27 it was “binds”; in that of B28, “binds”.
In the case of B29 it was “binds”; in that of B30, “binds”; in that of B31, “binds”.
In the case of B32 it was “binds”; in that of B33, “binds”.
On to B34, for which the binding result is “binds”.
In the case of B35 it was “binds”.
To B36 belongs “binds”; to B37, “binds”; to B38, “binds”.
To B39 belongs “binds”.
As for B40, the binding result is reported as “binds”.
In the case of B41 it was “binds”.
On to B42, for which the binding result is given as “binds”.
As to B43, the binding result is “binds”.
